# According to patent publication US20190282673A1, “STAPHTAME ACTIVITY ON BIOFILMS” (priority 2016, published 2019):
# Values joined by “and” are separate entries in the source; they are usually repeats but may differ in a detail not shown here. Equal entries are not always repeated.
# Key:
# [1] = tested on: S. epidermidis; assay: MIC and checkerboard synergy (broth microdilution) on planktonic cells; type: cell-based, Staphylococcus epidermidis
# Protocol: Bacterial cultures at a final cell number of 5×10^5 CFU/mL was added to wells of 96-well microtiter plates (precoated with 0.5% BSA), containing two-fold dilutions of P128 and the second drug in cation adjusted Mueller Hinton Broth (CAMHB). The plates were incubated at 37° C. for 24 h and the individual MICs and the combination MICs were read. The fractional inhibitory concentration index (FICI) was determined using the following equation: FICI=(MIC of drug A in the combination/MIC of drug A alone)+(MIC of drug B in the combination/MIC of drug B alone). The combination was considered to be synergistic when the FICI was ≤0.5; additive when FICI was 0.5-1.0; indifferent when FICI was 1-4 and antagonistic when FICI≥4.
# S. epidermidis culture at a final cell number of 5×10^5 CFU/mL was added to wells of 96-well microtiter plates (precoated with 0.5% BSA), containing two-fold dilutions of P128 and either Daptomycin or Oxacillin in cation adjusted Mueller Hinton Broth (CAMHB). CAMHB was supplemented with 50 µg/mL Ca^++ for daptomycin assay. The plates were incubated at 37° C. for 24 h and the individual MICs and the combination MICs were read. The fractional inhibitory concentration index (FICI) was determined using the following equation: FICI=(MIC of drug A in the combination/MIC of drug A alone)+(MIC of drug B in the combination/MIC of drug B alone). The combination was considered to be synergistic when the FICI was ≤0.5; additive when FICI was between 0.5-1.0; indifferent when FICI was between 1-4 and antagonistic when FICI was ≥4. The experiments were performed in triplicate and repeated twice.
# [2] = tested on: S. aureus USA300; assay: Mouse model of S. aureus with mucin-enhanced virulence, survival; type: in vivo, BALB/c mice; conditions: S. aureus USA300 10^9 CFU ip, P128 […] ip, Vancomycin 27.5 mg/kg sc 2 doses, or both
# Protocol: Eight to nine weeks old female BALB/c mice were challenged intraperitoneally with 10^9 CFU of S. aureus USA300. At 2 hours post-infection, animals were treated with either P128 at 2.5 mg/kg intraperitoneally, or vancomycin at 27.5 mg/kg subcutaneously, or combination of both. Groups treated with only vancomycin or combination of P128 and vancomycin were administered with a second dose of vancomycin at 12 hours after the first treatment. At 72 hours post-infection, P128 and vancomycin yielded 56 and 44% survival, respectively.
# [3] = tested on: MRSA MW2 biofilm on catheter; assay: In vivo biofilm on catheter implanted subcutaneously in neutropenic mice
# Protocol: Eight-nine week old female BALB/c mice 25 g were rendered neutropenic with cyclophosphamide and were operated under ketamine-xylazine anesthesia. A 1-cm incision was made in the dorsal neck surface by aseptic technique and subcutaneous pouch was created. Catheter segments of 1 cm length pre-incubated with MRSA MW2 suspension (6×10^3 CFUs/mL) for 4 hrs, were placed in the subcutaneous space and the wounds were closed with suture thereafter. As uninfected control, one group of mice were surgically operated and a sterile catheter segment was placed in the cavity. At 24 hours post-catheter implantation, mice were treated with P128 (800 μg per animal, subcutaneously) or with the placebo (saline). Treatments were given thrice a day at 2 hr intervals for three days and 1 hr after the last treatment, the catheters were removed, biofilms were harvested and CFUs recovered were plated on culture media and enumerated. Catheters from a subset of animals were stained with 0.1% safranin, (which stains the bacteria) for 5 min.
# For evaluation of synergy with daptomycin, mouse model of biofilm described above was used with few modifications. Eight-nine week old female BALB/c mice 25 g were rendered neutropenic with cyclophosphamide and were operated under ketamine-xylazine anesthesia. A 1-cm incision was made in the dorsal neck surface by aseptic technique and subcutaneous pouch was created. Catheter segments measuring 1 cm were placed in the subcutaneous space, and the wounds closed with suture. At 72 hours post-implantation. MRSA MW2 bacterial inoculum (2.1×10^7 CFU per animal) was injected subcutaneously onto the catheter. At 24 hrs post-challenge, animals were treated with either P128 (800 μg per animal, subcutaneous), or daptomycin (12.5 mg/kg, subcutaneous) or a combination of both. Daptomycin was given once every day for three days whereas P128 was administered thrice a day at 2 hr interval for three days. 1 hr after the last treatment, animals were euthanized and catheters were collected and recovered CFUs were enumerated.
# Biofilms were also visualized by staining the catheters with 0.1% safranin.
# [4] = P128 800 μg per animal sc, thrice a day for three days
# [5] = Table VB1: pre-colonised catheter, P128 800 μg per dose sc, 3 doses/day for 3 days
molecule,measurement,setting,value
"P128: anti-staphylococcal chimeric protein: phage tail associated muralytic enzyme (TAME) cell wall-degrading region plus staphylococcus-specific binding region; SEQ ID NO: 1 (protein, P128 chimera) MSLDSLKKYNGKLPKHDPSFVQPGNRHYKYQCTWYAYNRRGQLGIPVPLWGDAADWIGGAKGAGYGVGRTPKQGACVIWQRGVQGGSPQYGHVAFVEKVLDGGKKIFISEHNYATPNGYGTRTIDMSSAIGKNAQFIYDKKLETPNTGWKTNKYGTLYKSESASFTPNTDIITRTTGPFRSMPQSGVLKAGQTIHYDEVMKQDGHVWVGYTGNSGQRIYLPVRTWNKSTNTLGVLWGTIK",MIC (drug alone),[1]; S. epidermidis ATCC 12228,4 mg/L
same,MIC (drug alone),[1]; S. epidermidis B9467,32 mg/L
same,MIC (drug alone),[1]; S. epidermidis B9468,2 mg/L
same,MIC (drug alone),[1]; S. epidermidis B9470,8 mg/L
same,MIC (drug alone),[1]; S. epidermidis B9472,16 mg/L and 8 mg/L
same,MIC (drug alone),[1]; S. epidermidis B9473,16 mg/L
same,MIC over the strains,[1]; S. epidermidis strains of Tables 7 and 8,2 to 32 mg/L
same,Survival at 72 h post infection,[2],56%
same,Reduction in CFUs compared to the control group,[3]; [4],greater than 1 log
same,Safranin staining of catheters,[3]; [4],eradication of biofilm
same,Avg. CFU recovered from catheter biofilm,[3]; [5],2.8 CFU Log(10)/ml
same,"CFU recovered from catheter biofilm, individual animals",[3]; [5],4.15 CFU (Log10)/ml and 3.12 CFU (Log10)/ml and 1.00 CFU (Log10)/ml and Nil
same,"CFU recovered from catheter biofilm, individual animals","[3]; Table VB2: Daptomycin 12.5 mg/kg sc 1 dose per day for 3 days, P128 800 μg per dose sc 3 doses/day for 3 days, or both",2.5 CFU (Log10)/ml and 2.0 CFU (Log10)/ml and 2.7 CFU (Log10)/ml
